Patent US20220340649A1 (SENELIX, published 2022)
Where a chain is given by its changes, count along the chain named.

Assays:
[1] = target: T1, human YKL-40 (chitinase-3-like protein 1) (human, UniProt P36222 22-383); assay: ELISA, purified IgG on antigen
T1 construct: Antigen protein immobilized in ELISA and on the Octet AR2G sensor; also called hYKL-40; human YKL-40 antigen

[2] = target: T2, mouse YKL-40 (mouse, UniProt Q61362 30-389); assay: Octet BLI, antigen immobilized on AR2G sensor
T2 construct: Antigen protein immobilized in ELISA and on the Octet AR2G sensor; also called mYKL-40; mouse YKL-40 antigen
Method: (§1) To reconfirm the EC₅₀ value measured by ELISA, the affinity for 4E3-F2 (M3) and 3A10-F1 (H1) was measured using an Octet instrument. Cross-binding was investigated for the two antibodies using hYKL-40 and mYKL-40. Each antigen protein was immobilized using the AR2G (Amine Reactive 2nd Generation) sensor, and the direct immobilization method of binding each antibody with different concentrations (0-1 μM) was employed.

[3] = target: T1, human YKL-40 (chitinase-3-like protein …); assay: Octet BLI, antigen immobilized on AR2G sensor, antibody 0-1 µM; hYKL-40 on the sensor
Method: as §1

[4] = target: T1, human YKL-40 (chitinase-3-like protein …); assay: ELISA, IgG titrated on hYKL-40, A450nm normalized
[5] = target: T1, human YKL-40 (chitinase-3-like protein …); assay: ELISA, Fab protein titrated on hYKL-40 antigen, A450nm normalized
[6] = target: T2, mouse YKL-40; assay: ELISA, Fab protein titrated on mYKL-40 antigen, A450nm normalized
[7] = target: T2, mouse YKL-40; assay: ELISA, purified IgG on antigen
[8] = target: T2, mouse YKL-40; assay: Octet BLI, antigen immobilized on AR2G sensor, antibody 0-1 µM; mYKL-40 on the sensor
Method: as §1

T2 sequence (Q61362 30-389): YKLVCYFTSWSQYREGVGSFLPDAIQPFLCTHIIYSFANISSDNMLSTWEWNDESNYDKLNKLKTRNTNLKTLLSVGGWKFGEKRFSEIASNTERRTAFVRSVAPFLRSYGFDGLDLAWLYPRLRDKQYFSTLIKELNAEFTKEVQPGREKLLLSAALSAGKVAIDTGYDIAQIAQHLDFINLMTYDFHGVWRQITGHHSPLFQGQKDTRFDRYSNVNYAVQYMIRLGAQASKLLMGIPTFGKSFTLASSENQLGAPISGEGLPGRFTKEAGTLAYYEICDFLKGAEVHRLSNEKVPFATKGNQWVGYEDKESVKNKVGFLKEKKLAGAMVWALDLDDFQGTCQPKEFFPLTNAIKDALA
T1 sequence (P36222 22-383 limits assumed): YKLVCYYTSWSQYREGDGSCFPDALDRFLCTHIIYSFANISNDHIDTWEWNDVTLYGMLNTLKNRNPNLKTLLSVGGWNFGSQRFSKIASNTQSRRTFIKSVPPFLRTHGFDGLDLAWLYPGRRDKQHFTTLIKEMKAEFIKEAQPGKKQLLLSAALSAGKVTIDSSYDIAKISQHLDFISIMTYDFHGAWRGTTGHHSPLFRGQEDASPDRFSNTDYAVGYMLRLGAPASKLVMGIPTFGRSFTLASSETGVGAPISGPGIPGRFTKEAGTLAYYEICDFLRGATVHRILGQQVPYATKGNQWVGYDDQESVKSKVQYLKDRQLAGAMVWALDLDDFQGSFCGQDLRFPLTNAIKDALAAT

B1: 3A10-F1 (H1) human IgG antibody (antibody, V domains shown)
VH: EVQLVESGGGLVQPGGSLRLSCAASGFTFSNYAMSWVRQAPGKGLEWVSGISGSGGTTYYADSVKGRFTISRDNSKNTLYLQMNSLRAEDTAVYYCAGVGTFDVWGQGTLVTVSS
VL: DIQMTQSPSSLSASVGDRVTITCRASQTISSWLNWYQQKPGKAPKLLIYAASRLQSGVPSRFSGSGSGTDFTLTISSLQPEDFATYYCQQSYSTPLTFGQGTKVEIK
notes: The phage clone was converted to human IgG and produced in Expi293 cells; also called human YKL-40 antibody 3A10-F1 (H1)
Q: With B1 as the binder, how does the EC50 [1] read?
A: 0.582 nM

Q: Does B1 bind [2]?
A: no binding (tested: 0-1 µM)

Q: And the Kd [3]?
A: 0.05 nM

Q: And the EC50 [4]?
A: 0.5 nM

B2: 3A10-F1 (H1) Fab (Fab, V domains shown)
VH: B1 VH
VL: B1 VL
notes: Fab from the Fab-I phage library; also called Fab protein of 3A10-F1 (H1)
Q: How did the EC50 [5] turn out when B2 was run?
A: 0.74 nM

B3: 4E3-F2 (M3) Fab (Fab, V domains shown)
VH: QVQLVQSGAEVKKPGSSVKVSCKASGGTFSSYDIHWVRQAPGQGLEWMGIISPYLGITIYAQKFQGRVTITADESTSTAYMELSSLRSEDTAVYYCARRYFYYQSEAFDYWGQGTLVTVSS
VL: B1 VL with T28S, S31N, W32Y, R53T, T94F
notes: Fab from the Fab-II phage library; also called Fab protein of 4E3-F2 (M3)
Q: Which EC50 [6] does the source give for B3 here?
A: 4.3 nM

Q: What about the EC50 [5] of the same binder?
A: 23.6 nM

B4: 4E3-F2 (M3) human IgG antibody (antibody, V domains shown)
VH: B3 VH
VL: B1 VL with T28S, S31N, W32Y, R53T, T94F
notes: The phage clone was converted to human IgG and produced in Expi293 cells; also called mouse YKL-40 antibody 4E3-F2 (M3)
Q: Which results are given for B4?
A: EC50 [7]: 0.067 nM; Kd [8]: 67 nM; Kd [3]: 57 nM
